T1: glucose-dependent insulinotropic peptide (gastric inhibitory polypeptide) receptor (GIPR), primary cAMP assay (human, UniProt P48546 22-466)
T1 sequence (looked up): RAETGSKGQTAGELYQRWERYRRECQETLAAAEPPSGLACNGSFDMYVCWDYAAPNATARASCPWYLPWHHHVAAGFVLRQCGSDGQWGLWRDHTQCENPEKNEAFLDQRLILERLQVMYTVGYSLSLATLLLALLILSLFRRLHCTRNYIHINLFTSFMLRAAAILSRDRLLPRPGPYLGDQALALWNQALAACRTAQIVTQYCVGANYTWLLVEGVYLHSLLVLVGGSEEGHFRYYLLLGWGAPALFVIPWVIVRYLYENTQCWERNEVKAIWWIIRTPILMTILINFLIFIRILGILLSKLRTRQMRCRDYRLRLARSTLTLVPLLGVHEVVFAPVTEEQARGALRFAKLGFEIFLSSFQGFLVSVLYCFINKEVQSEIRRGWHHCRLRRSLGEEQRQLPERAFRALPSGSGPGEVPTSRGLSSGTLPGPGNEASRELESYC

T2: GLP-1R in the INS1e assay (UniProt P32301 22-463, limits assumed)
T2 sequence (looked up): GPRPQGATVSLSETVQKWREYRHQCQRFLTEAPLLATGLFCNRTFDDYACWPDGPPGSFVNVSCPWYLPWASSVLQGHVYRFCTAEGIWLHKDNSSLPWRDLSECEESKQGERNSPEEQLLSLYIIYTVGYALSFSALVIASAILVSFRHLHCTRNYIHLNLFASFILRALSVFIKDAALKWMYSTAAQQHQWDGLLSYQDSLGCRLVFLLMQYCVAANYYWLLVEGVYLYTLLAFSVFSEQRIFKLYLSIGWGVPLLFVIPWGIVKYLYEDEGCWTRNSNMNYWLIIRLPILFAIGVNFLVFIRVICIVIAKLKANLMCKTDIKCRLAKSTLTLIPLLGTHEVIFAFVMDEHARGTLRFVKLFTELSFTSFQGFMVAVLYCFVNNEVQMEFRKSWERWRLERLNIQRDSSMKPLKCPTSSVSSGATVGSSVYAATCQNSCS

The values that follow come from patent US20200079833A1 (AstraZeneca / MedImmune, published 2020).

Starred links: 1 amine or outer side, 2 acyl side, 3 side chain; linkers in the order of their positions; H or OH if unused. Non-standard residues stand in square brackets, D forms with d. Groups on a side chain read outwards from the residue. Primed or numbered codes have the meaning given here. No end group written: not given here. *: point of attachment. Tyr(OMe) = COc1ccc(C[C@H](N[*:1])C(=O)[*:2])cc1; γGlu = O=C(O)[C@H](CCC(=O)[*:2])N[*:1]; Palmitoyl = CCCCCCCCCCCCCCCC(=O)*; αMeF = C[C@](N)(Cc1ccccc1)C(=O)O; αMeK = C[C@](N)(CCCCN)C(=O)O; Lauroyl = CCCCCCCCCCCC(=O)*; αMeS = C[C@](N)(CO)C(=O)O; PEG2′ = not defined here; Aib = CC(C)(N)C(=O)O

For the first test, the target named is GLP-1 receptor (GLP-1R), primary cAMP assay (human, UniProt P43220 24-463). Kind of test: cell-based or functional assay.
Take H[Aib]EGS[αMeF]TSDV[αMeS]SK([PEG2′-PEG2′-γGlu-Palmitoyl])LEGEAA[αMeK]E[αMeF]IAK([PEG2′-PEG2′-γGlu-Palmitoyl])VVEGG-NH2 [SEQ ID NO: 409]: the “Primary assay EC50 (cAMP) Mean” value was 0.0361 nM; the “Primary assay EC50 (cAMP), n1” value is 0.0395 nM; the “Primary assay EC50 (cAMP), n2” value came out at 0.0326 nM.

Consider H[Aib]EGS[αMeF]TSDV[αMeS]SK([PEG2′-PEG2′-γGlu-Lauroyl])LEGEAA[αMeK]E[Tyr(OMe)]IAK([PEG2′-PEG2′-γGlu-Lauroyl])VVEGG-NH2 [SEQ ID NO: 406], for which the “Primary assay EC50 (cAMP) Mean” value came out at 0.0023 nM; the “Primary assay EC50 (cAMP), n1” value was determined as 0.00219 nM; the “Primary assay EC50 (cAMP), n2” value was determined as 0.00231 nM.

For H[Aib]EGS[αMeF]TSDV[αMeS]SYK([PEG2′-PEG2′-γGlu-Lauroyl])EGEAA[αMeK]EFIAWK([PEG2′-PEG2′-γGlu-Lauroyl])VEGG-NH2 [SEQ ID NO: 270], the “Primary assay EC50 (cAMP) Mean” value was found to be 0.0329 nM; the “Primary assay EC50 (cAMP), n1” value came out at 0.0293 nM; the “Primary assay EC50 (cAMP), n2” value worked out at 0.0365 nM.

As to H[Aib]EGS[αMeF]TSDV[αMeS]SYK([PEG2′-PEG2′-γGlu-Lauroyl])EGEAA[αMeK]EFIK([PEG2′-PEG2′-γGlu-Lauroyl])WVVEGG-NH2 [SEQ ID NO: 268], the “Primary assay EC50 (cAMP) Mean” value is 0.0048 nM; the “Primary assay EC50 (cAMP), n1” value is 0.00446 nM; the “Primary assay EC50 (cAMP), n2” value is 0.00505 nM.

The target of a further test is glucagon receptor (GCGR), primary cAMP assay (human, UniProt P47871 26-477). Nature of the test: cell-based or functional assay.
Chain of glucagon receptor (GCGR), primary cAMP assay (P47871 26-477): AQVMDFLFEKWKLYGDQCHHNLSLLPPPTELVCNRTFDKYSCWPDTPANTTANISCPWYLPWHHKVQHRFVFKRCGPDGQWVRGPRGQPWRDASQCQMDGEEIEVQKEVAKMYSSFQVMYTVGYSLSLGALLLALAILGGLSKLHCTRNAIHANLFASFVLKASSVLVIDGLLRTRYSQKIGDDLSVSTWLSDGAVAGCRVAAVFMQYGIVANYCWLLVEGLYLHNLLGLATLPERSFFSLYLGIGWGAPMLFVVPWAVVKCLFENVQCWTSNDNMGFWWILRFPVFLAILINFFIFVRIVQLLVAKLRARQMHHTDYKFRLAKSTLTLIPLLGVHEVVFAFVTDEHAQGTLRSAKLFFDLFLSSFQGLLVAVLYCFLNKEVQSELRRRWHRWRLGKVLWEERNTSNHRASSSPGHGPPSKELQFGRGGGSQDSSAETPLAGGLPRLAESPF
As for H[Aib]EGS[αMeF]TSDV[αMeS]SK([PEG2′-PEG2′-γGlu-Palmitoyl])LEGEAA[αMeK]E[αMeF]IAK([PEG2′-PEG2′-γGlu-Palmitoyl])VVEGG-NH2 [SEQ ID NO: 409], the “Primary assay EC50 (cAMP), n1” value came out at 21.5 nM and the “Primary assay EC50 (cAMP), n2” value worked out at 21.5 nM.

Consider H[Aib]EGS[αMeF]TSDV[αMeS]SK([PEG2′-PEG2′-γGlu-Lauroyl])LEGEAA[αMeK]E[Tyr(OMe)]IAK([PEG2′-PEG2′-γGlu-Lauroyl])VVEGG-NH2 [SEQ ID NO: 406], for which the “Primary assay EC50 (cAMP), n1” value came out at 21.5 nM and the “Primary assay EC50 (cAMP), n2” value was 21.5 nM.

Take H[Aib]EGS[αMeF]TSDV[αMeS]SYK([PEG2′-PEG2′-γGlu-Lauroyl])EGEAA[αMeK]EFIAWK([PEG2′-PEG2′-γGlu-Lauroyl])VEGG-NH2 [SEQ ID NO: 270]: the “Primary assay EC50 (cAMP), n1” value is 22.3 nM and the “Primary assay EC50 (cAMP), n2” value came out at 22.3 nM.

Turning to H[Aib]EGS[αMeF]TSDV[αMeS]SYK([PEG2′-PEG2′-γGlu-Lauroyl])EGEAA[αMeK]EFIK([PEG2′-PEG2′-γGlu-Lauroyl])WVVEGG-NH2 [SEQ ID NO: 268], the “Primary assay EC50 (cAMP), n1” value was determined as 22.2 nM and the “Primary assay EC50 (cAMP), n2” value is 22.2 nM.

Another test concerns the target T1, glucose-dependent insulinotropic …. Kind of test: cell-based or functional assay.
For H[Aib]EGS[αMeF]TSDV[αMeS]SK([PEG2′-PEG2′-γGlu-Palmitoyl])LEGEAA[αMeK]E[αMeF]IAK([PEG2′-PEG2′-γGlu-Palmitoyl])VVEGG-NH2 [SEQ ID NO: 409], the “Primary assay EC50 (cAMP), n1” value was 21.5 nM and the “Primary assay EC50 (cAMP), n2” value was 21.5 nM.

Turning to H[Aib]EGS[αMeF]TSDV[αMeS]SK([PEG2′-PEG2′-γGlu-Lauroyl])LEGEAA[αMeK]E[Tyr(OMe)]IAK([PEG2′-PEG2′-γGlu-Lauroyl])VVEGG-NH2 [SEQ ID NO: 406], the “Primary assay EC50 (cAMP), n1” value came out at 21.5 nM and the “Primary assay EC50 (cAMP), n2” value came out at 21.5 nM.

For H[Aib]EGS[αMeF]TSDV[αMeS]SYK([PEG2′-PEG2′-γGlu-Lauroyl])EGEAA[αMeK]EFIAWK([PEG2′-PEG2′-γGlu-Lauroyl])VEGG-NH2 [SEQ ID NO: 270], the “Primary assay EC50 (cAMP), n1” value is 22.3 nM and the “Primary assay EC50 (cAMP), n2” value is 22.3 nM.

As for H[Aib]EGS[αMeF]TSDV[αMeS]SYK([PEG2′-PEG2′-γGlu-Lauroyl])EGEAA[αMeK]EFIK([PEG2′-PEG2′-γGlu-Lauroyl])WVVEGG-NH2 [SEQ ID NO: 268], the “Primary assay EC50 (cAMP), n1” value worked out at 22.2 nM and the “Primary assay EC50 (cAMP), n2” value amounted to 22.2 nM.

Another test addresses T2, GLP-1R in the INS1e assay. Kind of test: cell-based or functional assay.
With H[Aib]EGS[αMeF]TSDV[αMeS]SK([PEG2′-PEG2′-γGlu-Palmitoyl])LEGEAA[αMeK]E[αMeF]IAK([PEG2′-PEG2′-γGlu-Palmitoyl])VVEGG-NH2 [SEQ ID NO: 409], the “INS1e assay EC50 (cAMP) Mean” value came out at 0.216 nM, the “INS1e assay EC50 (cAMP) n1” value was found to be 0.183 nM and the “INS1e assay EC50 (cAMP) n2” value worked out at 0.249 nM.

In the case of H[Aib]EGS[αMeF]TSDV[αMeS]SK([PEG2′-PEG2′-γGlu-Lauroyl])LEGEAA[αMeK]E[Tyr(OMe)]IAK([PEG2′-PEG2′-γGlu-Lauroyl])VVEGG-NH2 [SEQ ID NO: 406], the “INS1e assay EC50 (cAMP) Mean” value is 0.094 nM, the “INS1e assay EC50 (cAMP) n1” value amounted to 0.101 nM and the “INS1e assay EC50 (cAMP) n2” value worked out at 0.0872 nM.

Regarding H[Aib]EGS[αMeF]TSDV[αMeS]SYK([PEG2′-PEG2′-γGlu-Lauroyl])EGEAA[αMeK]EFIAWK([PEG2′-PEG2′-γGlu-Lauroyl])VEGG-NH2 [SEQ ID NO: 270], the “INS1e assay EC50 (cAMP) Mean” value turned out to be 1.72 nM, the “INS1e assay EC50 (cAMP) n1” value was 1.41 nM and the “INS1e assay EC50 (cAMP) n2” value amounted to 2.02 nM.

Turning to H[Aib]EGS[αMeF]TSDV[αMeS]SYK([PEG2′-PEG2′-γGlu-Lauroyl])EGEAA[αMeK]EFIK([PEG2′-PEG2′-γGlu-Lauroyl])WVVEGG-NH2 [SEQ ID NO: 268], the “INS1e assay EC50 (cAMP) Mean” value turned out to be 1.16 nM, the “INS1e assay EC50 (cAMP) n1” value was determined as 1.09 nM and the “INS1e assay EC50 (cAMP) n2” value was 1.23 nM.
